We go through 2 variants from IntAct's records for PubMed 18832153.

B1: Structural maintenance of chromosomes protein 1A (Homo sapiens), Q14683 (parent)
chain: MGFLKLIEIENFKSYKGRQIIGPFQRFTAIIGPNGSGKSNLMDAISFVLGEKTSNLRVKTLRDLIHGAPVGKPAANRAFVSMVYSEEGAEDRTFARVIVGGSSEYKINNKVVQLHEYSEELEKLGILIKARNFLVFQGAVESIAMKNPKERTALFEEISRSGELAQEYDKRKKEMVKAEEDTQFNYHRKKNIAAERKEAKQEKEEADRYQRLKDEVVRAQVQLQLFKLYHNEVEIEKLNKELASKNKEIEKDKKRMDKVEDELKEKKKELGKMMREQQQIEKEIKEKDSELNQKRPQYIKAKENTSHKIKKLEAAKKSLQNAQKHYKKRKGDMDELEKEMLSVEKARQEFEERMEEESQSQGRDLTLEENQVKKYHRLKEEASKRAATLAQELEKFNRDQKADQDRLDLEERKKVETEAKIKQKLREIEENQKRIEKLEEYITTSKQSLEEQKKLEGELTEEVEMAKRRIDEINKELNQVMEQLGDARIDRQESSRQQRKAEIMESIKRLYPGSVYGRLIDLCQPTQKKYQIAVTKVLGKNMDAIIVDSEKTGRDCIQYIKEQRGEPETFLPLDYLEVKPTDEKLRELKGAKLVIDVIRYEPPHIKKALQYACGNALVCDNVEDARRIAFGGHQRHKTVALDGTLFQKSGVISGGASDLKAKARRWDEKAVDKLKEKKERLTEELKEQMKAKRKEAELRQVQSQAHGLQMRLKYSQSDLEQTKTRHLALNLQEKSKLESELANFGPRINDIKRIIQSREREMKDLKEKMNQVEDEVFEEFCREIGVRNIREFEEEKVKRQNEIAKKRLEFENQKTRLGIQLDFEKNQLKEDQDKVHMWEQTVKKDENEIEKLKKEEQRHMKIIDETMAQLQDLKNQHLAKKSEVNDKNHEMEEIRKKLGGANKEMTHLQKEVTAIETKLEQKRSDRHNLLQACKMQDIKLPLSKGTMDDISQEEGSSQGEDSVSGSQRISSIYAREALIEIDYGDLCEDLKDAQAEEEIKQEMNTLQQKLNEQQSVLQRIAAPNMKAMEKLESVRDKFQETSDEFEAARKRAKKAKQAFEQIKKERFDRFNACFESVATNIDEIYKALSRNSSAQAFLGPENPEEPYLDGINYNCVAPGKRFRPMDNLSGGEKTVAALALLFAIHSYKPAPFFVLDEIDAALDNTNIGKVANYIKEQSTCNFQAIVISLKEEFYTKAESLIGVYPEQGDCVISKVLTFDLTKYPDANPNPNEQ
partner: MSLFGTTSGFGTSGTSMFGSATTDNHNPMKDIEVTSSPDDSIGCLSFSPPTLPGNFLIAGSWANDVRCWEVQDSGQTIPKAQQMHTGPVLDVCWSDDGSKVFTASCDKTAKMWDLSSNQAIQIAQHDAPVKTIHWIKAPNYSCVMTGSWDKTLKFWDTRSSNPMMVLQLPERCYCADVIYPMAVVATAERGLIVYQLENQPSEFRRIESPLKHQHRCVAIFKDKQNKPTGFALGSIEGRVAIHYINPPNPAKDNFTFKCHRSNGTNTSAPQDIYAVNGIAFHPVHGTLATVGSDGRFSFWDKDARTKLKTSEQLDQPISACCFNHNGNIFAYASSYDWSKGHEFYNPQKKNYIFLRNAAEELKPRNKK

In the test the parent is B1. As to conditions: with rae1l_human RAE1, P78406.
Consider S966A, for which the “effect of a mutation on the interaction” value was “decreasing interaction”. For the variant S957A, the “effect of a mutation on the interaction” value is “decreasing interaction”.
